The text below walks through data of publication PMC8752480 (Journal of molecular biology, 2021).

The labels stand for the following.
B1: hexon (major capsid protein) of HAdV-C5 in the Ad5F35-ts1 virion (natural protein)
chain: MATPSMMPQWSYMHISGQDASEYLSPGLVQFARATETYFSLNNKFRNPTVAPTHDVTTDRSQRLTLRFIPVDREDTAYSYKARFTLAVGDNRVLDMASTYFDIRGVLDRGPTFKPYSGTAYNALAPKGAPNPCEWDEAATALEINLEEEDDDNEDEVDEQAEQQKTHVFGQAPYSGINITKEGIQIGVEGQTPKYADKTFQPEPQIGESQWYETEINHAAGRVLKKTTPMKPCYGSYAKPTNENGGQGILVKQQNGKLESQVEMQFFSTTEATAGNGDNLTPKVVLYSEDVDIETPDTHISYMPTIKEGNSRELMGQQSMPNRPNYIAFRDNFIGLMYYNSTGNMGVLAGQASQLNAVVDLQDRNTELSYQLLLDSIGDRTRYFSMWNQAVDSYDPDVRIIENHGTEDELPNYCFPLGGVINTETLTKVKPKTGQENGWEKDATEFSDKNEIRVGNNFAMEINLNANLWRNFLYSNIALYLPDKLKYSPSNVKISDNPNTYDYMNKRVVAPGLVDCYINLGARWSLDYMDNVNPFNHHRNAGLRYRSMLLGNGRYVPFHIQVPQKFFAIKNLLLLPGSYTYEWNFRKDVNMVLQSSLGNDLRVDGASIKFDSICLYATFFPMAHNTASTLEAMLRNDTNDQSFNDYLSAANMLYPIPANATNVPISIPSRNWAAFRGWAFTRLKTKETPSLGSGYDPYYTYSGSIPYLDGTFYLNHTFKKVAITFDSSVSWPGNDRLLTPNEFEIKRSVDGEGYNVAQCNMTKDWFLVQMLANYNIGYQGFYIPESYKDRMYSFFRNFQPMSRQVVDDTKYKDYQQVGILHQHNNSGFVGYLAPTMREGQAYPANFPYPLIGKTAVDSITQKKFLCDRTLWRIPFSSNFMSMGALTDLGQNLLYANSAHALDMTFEVDPMDEPTLLYVLFEVFDVVRVHRPHRGVIETVYLRTPFSAGNATT

Data set [1] concerns the molecule itself. Put plainly: […].
For data set [2], the target named is B1. In words: […].

In the case of B1, the binding result in data set [1] is “binds”.

B2: penton base of HAdV-C5 in the Ad5F35-ts1 virion (natural protein)
chain: MRRAAMYEEGPPPSYESVVSAAPVAAALGSPFDAPLDPPFVPPRYLRPTGGRNSIRYSELAPLFDTTRVYLVDNKSTDVASLNYQNDHSNFLTTVIQNNDYSPGEASTQTINLDDRSHWGGDLKTILHTNMPNVNEFMFTNKFKARVMVSRLPTKDNQVELKYEWVEFTLPEGNYSETMTIDLMNNAIVEHYLKVGRQNGVLESDIGVKFDTRNFRLGFDPVTGLVMPGVYTNEAFHPDIILLPGCGVDFTHSRLSNLLGIRKRQPFQEGFRITYDDLEGGNIPALLDVDAYQASLKDDTEQGGGGAGGSNSSGSGAEENSNAAAAAMQPVEDMNDHAIRGDTFATRAEEKRAEAEAAAEAAAPAAQPEVEKPQKKPVIKPLTEDSKKRSYNLISNDSTFTQYRSWYLAYNYGDPQTGIRSWTLLCTPDVTCGSEQVYWSLPDMMQDPVTFRSTRQISNFPVVGAELLPVHSKSFYNDQAVYSQLIRQFTSLTHVFNRFPENQILARPPAPTITTVSENVPALTDHGTLPLRNSIGGVQRVTITDARRRTCPYVYKALGIVSPRVLSSRTF
As for B2, the binding result in data set [2] and in data set [1] was “binds” each time.

B3: precursor of protein VI (pVI) of HAdV-C5 in the Ad5F35-ts1 virion (natural protein)
chain: MEDINFASLAPRHGSRPFMGNWQDIGTSNMSGGAFSWGSLWSGIKNFGSTVKNYGSKAWNSSTGQMLRDKLKEQNFQQKVVDGLASGISGVVDLANQAVQNKINSKLDPRPPVEEPPPAVETVSPEGRGEKRPRPDREETLVTQIDEPPSYEEALKQGLPTTRPIAPMATGVLGQHTPVTLDLPPPADTQQKPVLPGPTAVVVTRPSRASLRRAASGPRSLRPVASGNWQSTLNSIVGLGVQSLKRRRCF
On to B3, for which, in data set [2], the binding result is “binds”.

B4: protein IX of HAdV-C5 in the Ad5F35-ts1 virion (natural protein)
chain: MSTNSFDGSIVSSYLTTRMPPWAGVRQNVMGSSIDGRPVLPANSTTLTYETVSGTPLETAASAAASAAAATARGIVTDFAFLSPLASSAASRSSARDDKLTALLAQLDSLTRELNVVSQQLLDLRQQVSALKASSPPNAV
Turning to B4, in data set [2], the binding result was “binds”.

B5: precursor of protein IIIa (pIIIa) of HAdV-C5 in the Ad5F35-ts1 virion (natural protein)
chain: MMQDATDPAVRAALQSQPSGLNSTDDWRQVMDRIMSLTARNPDAFRQQPQANRLSAILEAVVPARANPTHEKVLAIVNALAENRAIRPDEAGLVYDALLQRVARYNSGNVQTNLDRLVGDVREAVAQRERAQQQGNLGSMVALNAFLSTQPANVPRGQEDYTNFVSALRLMVTETPQSEVYQSGPDYFFQTSRQGLQTVNLSQAFKNLQGLWGVRAPTGDRATVSSLLTPNSRLLLLLIAPFTDSGSVSRDTYLGHLLTLYREAIGQAHVDEHTFQEITSVSRALGQEDTGSLEATLNYLLTNRRQKIPSLHSLNSEEERILRYVQQSVSLNLMRDGVTPSVALDMTARNMEPGMYASNRPFINRLMDYLHRAAAVNPEYFTNAILNPHWLPPPGFYTGGFEVPEGNDGFLWDDIDDSVFSPQPQTLLELQQREQAEAALRKESFRRPSSLSDLGAAAPRSDASSPFPSLIGSLTSTRTTRPRLLGEEEYLNNSLLQPQREKNLPPAFPNNGIESLVDKMSRWKTYAQEHRDVPGPRPPTRRQRHDRQRGLVWEDDDSADDSSVLDLGGSGNPFAHLRPRLGRMF
Regarding B5, the binding result in data set [2] and in data set [1] was “binds” each time.

B6: precursor of protein VIII (pVIII) of HAdV-C5 in the Ad5F35-ts1 virion (natural protein)
chain: MSKEIPTPYMWSYQPQMGLAAGAAQDYSTRINYMSAGPHMISRVNGIRAHRNRILLEQAAITTTPRNNLNPRSWPAALVYQESPAPTTVVLPRDAQAEVQMTNSGAQLAGGFRHRVRSPGQGITHLTIRGRGIQLNDESVSSSLGLRPDGTFQIGGAGRPSFTPRQAILTLQTSSSEPRSGGIGTLQFIEEFVPSVYFNPFSGPPGHYPDQFIPNFDAVKDSADGYD
On to B6, for which, in data set [2], the binding result is reported as “binds”.
